From US7247438

Key:
[1] = molecular target: VSV8/Kb complex (vesicular stomatitis virus; mouse) (UniProt P01887); test: cell-based or functional assay
[2] = molecular target: activated thymic caspase (~17 kD subunit) of VSV8-triggered N15 TCRtg RAG-2-/- H-2b mouse thymocytes (mouse); test: cell-based or functional assay
[3] = molecular target: activated thymic caspase (~17 kD subunit) of VSV8-triggered N15 TCRtg RAG-2-/- H-2b mouse thymocytes (mouse); test: preincubation with zVADfmk, competitor biotin-DEVDamk, thymic lysate, streptavidin-HRP blot
[4] = molecular target: mouse CD3ε (mouse) (UniProt P22646); test: cell-based or functional assay

VSV8/Kb complex (vesicular stomatitis virus; mouse), sequence (P01901 22-369 limits assumed, chain 2 of 2): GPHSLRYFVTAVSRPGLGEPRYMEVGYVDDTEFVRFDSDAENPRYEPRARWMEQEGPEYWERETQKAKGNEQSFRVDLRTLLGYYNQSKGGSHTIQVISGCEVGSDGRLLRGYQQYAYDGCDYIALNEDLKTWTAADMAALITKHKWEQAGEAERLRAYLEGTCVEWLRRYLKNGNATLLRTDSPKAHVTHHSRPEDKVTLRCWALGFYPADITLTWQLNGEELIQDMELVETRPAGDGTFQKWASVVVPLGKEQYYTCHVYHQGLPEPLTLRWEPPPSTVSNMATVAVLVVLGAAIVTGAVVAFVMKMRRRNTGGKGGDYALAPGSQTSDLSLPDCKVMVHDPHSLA
VSV8/Kb complex (vesicular stomatitis virus; mouse), sequence (P01887 21-119 limits assumed, chain 3 of 2): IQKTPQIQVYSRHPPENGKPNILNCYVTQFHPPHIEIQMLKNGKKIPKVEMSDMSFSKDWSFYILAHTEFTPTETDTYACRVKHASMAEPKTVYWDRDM

N15 TCR
TdT positive cells per mm2 (TUNEL), FTOC N15tg #1, VSV8 (TdT positive cells / mm2) [1]: 429 | TdT positive cells per mm2 (TUNEL), FTOC N15tg #2, VSV8 (TdT positive cells / mm2) [1]: 456 | TdT positive cells per mm2 (TUNEL), FTOC N15tg #3, VSV8 (TdT positive cells / mm2) [1]: 441

N-(Z-Valinylalanyl)aspartic acid methyl ketone, b-methyl ester (peptide)
TdT positive cells per mm2 (TUNEL), FTOC N15tg #1, zVADmk + VSV8 (TdT positive cells / mm2) [2]: 360 | TdT positive cells per mm2 (TUNEL), FTOC N15tg #2, zVADmk + VSV8 (TdT positive cells / mm2) [2]: 525 | TdT positive cells per mm2 (TUNEL), FTOC N15tg #3, zVADmk + VSV8 (TdT positive cells / mm2) [2]: 461

N-benzyloxycarbonyl-Val-Ala-Asp(OMe)-fluoromethylketone (peptide)
molar excess over biotin-DEVDamk at which the ~17 kD band is no longer detectable [3]: 100 to 1000 fold | TdT positive cells per mm2 (TUNEL), FTOC N15tg #1, zVADfmk + VSV8 (TdT positive cells / mm2) [2]: 6 | TdT positive cells per mm2 (TUNEL), FTOC N15tg #2, zVADfmk + VSV8 (TdT positive cells / mm2) [2]: 1 | TdT positive cells per mm2 (TUNEL), FTOC N15tg #3, zVADfmk + VSV8 (TdT positive cells / mm2) [2]: 2

anti-CD3ε specific hamster anti-mouse mAb 145-2C11 (antibody)
percent DP thymocytes in C57BL/6 FTOC after 18 hours with 200 mg/ml 2C11 mAb (FACS) [4]: 37%
